Test results taken from the supplement of paper PMC10567573.

B1: SCNN1D (parent)
chain: FLGHHSFSVRPGTEATISIREDEV

Variants of: B1
Assay: protein stability index of a GFP-peptide fusion (GPS, HEK-293T) (PSI 1-6); higher = more stable
Conditions: c terminus: a fixed tail appended
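Further: lentivirally expressed fusions sorted by FACS into six bins by GFP to DsRed ratio, PSI derived from sequencing read proportions per bin multiplied by bin number.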

| Variant | protein stability index |
| --- | --- |
| FLGHHSFSNRPGTEATISIREDEV [V9N] | 2.6 |
| FLGHHSFSERPGTEATISIREDEV [V9E] | 2.83 |
| FLGHHSFSARPGTEATISIREDEV [V9A] | 2.36 |
| FLGHHSFSLRPGTEATISIREDEV [V9L] | 2.15 |
| FLGHHSFSRRPGTEATISIREDEV [V9R] | 3.8 |
| FLGHHSFSIRPGTEATISIREDEV [V9I] | 2.26 |
| FLGHHSFSHRPGTEATISIREDEV [V9H] | 3.09 |
| FLGHHSFSMRPGTEATISIREDEV [V9M] | 2.42 |
| FLGHHSFSQRPGTEATISIREDEV [V9Q] | 2.86 |
| FLGHHSFSTRPGTEATISIREDEV [V9T] | 2.29 |
| FLGHHSFSGRPGTEATISIREDEV [V9G] | 3.44 |
| FLGHHSFSSRPGTEATISIREDEV [V9S] | 2.12 |
| FLGHHSFSKRPGTEATISIREDEV [V9K] | 2.83 |
| FLGHHSFSPRPGTEATISIREDEV [V9P] | 2.18 |
| FLGHHSFSYRPGTEATISIREDEV [V9Y] | 2.84 |
| FLGHHSFSWRPGTEATISIREDEV [V9W] | 1.64 |
| FLGHGSFSVRPGTEATISIREDEV [H5G] | 2.3 |
| FLGHMSFSVRPGTEATISIREDEV [H5M] | 2.33 |
| FLGHTSFSVRPGTEATISIREDEV [H5T] | 1.54 |
| FLGHVSFSVRPGTEATISIREDEV [H5V] | 1.33 |
| FLGHRSFSVRPGTEATISIREDEV [H5R] | 2.55 |
| FLGHESFSVRPGTEATISIREDEV [H5E] | 1.78 |
| FLGHQSFSVRPGTEATISIREDEV [H5Q] | 1.25 |
| FLGHSSFSVRPGTEATISIREDEV [H5S] | 1.75 |

| Variant | protein stability index |
| --- | --- |
| FLGHDSFSVRPGTEATISIREDEV [H5D] | 2.02 |
| FLGHPSFSVRPGTEATISIREDEV [H5P] | 2.13 |
| FLGHNSFSVRPGTEATISIREDEV [H5N] | 1.71 |
| FLGHCSFSVRPGTEATISIREDEV [H5C] | 1.53 |
| FLGHWSFSVRPGTEATISIREDEV [H5W] | 3.19 |
| FLGHISFSVRPGTEATISIREDEV [H5I] | 1.64 |
| FLGHKSFSVRPGTEATISIREDEV [H5K] | 3.06 |
| FLGHASFSVRPGTEATISIREDEV [H5A] | 2.46 |
| FLGHLSFSVRPGTEATISIREDEV [H5L] | 2.28 |
| FLGHYSFSVRPGTEATISIREDEV [H5Y] | 1.89 |
| FLGHHSFQVRPGTEATISIREDEV [S8Q] | 1.78 |
| FLGHHSFFVRPGTEATISIREDEV [S8F] | 1.37 |
| FLGHHSFWVRPGTEATISIREDEV [S8W] | 2.68 |
| FLGHHSFNVRPGTEATISIREDEV [S8N] | 2.4 |
| FLGHHSFGVRPGTEATISIREDEV [S8G] | 2.43 |
| FLGHHSFHVRPGTEATISIREDEV [S8H] | 2.12 |
| FLGHHSFYVRPGTEATISIREDEV [S8Y] | 1.86 |
| FLGHHSFPVRPGTEATISIREDEV [S8P] | 3.49 |
| FLGHHSFRVRPGTEATISIREDEV [S8R] | 1.96 |
| FLGHHSFDVRPGTEATISIREDEV [S8D] | 3.02 |
| FLGHHSFLVRPGTEATISIREDEV [S8L] | 1.65 |
| FLGHHSFIVRPGTEATISIREDEV [S8I] | 2.04 |
| FLGHHSFAVRPGTEATISIREDEV [S8A] | 3.59 |
| FLGHHSFTVRPGTEATISIREDEV [S8T] | 1.62 |

| Variant | protein stability index |
| --- | --- |
| FLGHHSFEVRPGTEATISIREDEV [S8E] | 2.48 |
| FLGHHSFMVRPGTEATISIREDEV [S8M] | 1.75 |
| FLGHHSFCVRPGTEATISIREDEV [S8C] | 4.76 |
| FLGHHSFVVRPGTEATISIREDEV [S8V] | 1.8 |
| FLGHHSFKVRPGTEATISIREDEV [S8K] | 1.57 |
| FLGHHSFSVRPGTAATISIREDEV [E14A] | 1.92 |
| FLGHHSFSVRPGTCATISIREDEV [E14C] | 1.65 |
| FLGHHSFSVRPGTDATISIREDEV [E14D] | 1.13 |
| FLYHHSFSVRPGTEATISIREDEV [G3Y] | 3.25 |
| FLGHHSFSVRPQTEATISIREDEV [G12Q] | 1.56 |
| FLGHHSFSVRPETEATISIREDEV [G12E] | 1.88 |
| FLGHHSFSVRPHTEATISIREDEV [G12H] | 1.81 |
| FLGHHSFSVRPNTEATISIREDEV [G12N] | 2.05 |
| FLGHHSFSVRPTTEATISIREDEV [G12T] | 1.67 |
| FLGHHSFSVRPSTEATISIREDEV [G12S] | 1.55 |
| FLGHHSFSVRPCTEATISIREDEV [G12C] | 2.24 |
| FLGHHSFSVRPYTEATISIREDEV [G12Y] | 1.15 |
| FLGHHSFSVRPITEATISIREDEV [G12I] | 1.54 |
| FLGHHSFSVRPLTEATISIREDEV [G12L] | 1.71 |
| FLGHHSFSVRPFTEATISIREDEV [G12F] | 2.69 |
| FLGHHSFSVRPWTEATISIREDEV [G12W] | 1.42 |
| FLGHHSFSVRPPTEATISIREDEV [G12P] | 1.83 |
| FLGHHSFSVRPVTEATISIREDEV [G12V] | 1.57 |
| FLGHHSFSVRPMTEATISIREDEV [G12M] | 1.85 |

| Variant | protein stability index |
| --- | --- |
| FLGHHSFSVRPATEATISIREDEV [G12A] | 2.2 |
| FLGHHSFSVRPRTEATISIREDEV [G12R] | 1.46 |
| FLGHHSFSVRPKTEATISIREDEV [G12K] | 1.71 |
| FLGHHSFSVRPDTEATISIREDEV [G12D] | 2.35 |
| FLGMHSFSVRPGTEATISIREDEV [H4M] | 1.58 |
| FLGDHSFSVRPGTEATISIREDEV [H4D] | 3.7 |
| FLGNHSFSVRPGTEATISIREDEV [H4N] | 2.29 |
| FLGIHSFSVRPGTEATISIREDEV [H4I] | 2.64 |
| FLGLHSFSVRPGTEATISIREDEV [H4L] | 2.08 |
| FLGRHSFSVRPGTEATISIREDEV [H4R] | 2.68 |
| FLGEHSFSVRPGTEATISIREDEV [H4E] | 3.39 |
| FLGPHSFSVRPGTEATISIREDEV [H4P] | 1.7 |
| FLGSHSFSVRPGTEATISIREDEV [H4S] | 1.9 |
| FLGAHSFSVRPGTEATISIREDEV [H4A] | 2.74 |
| FLGFHSFSVRPGTEATISIREDEV [H4F] | 3.4 |
| FLGKHSFSVRPGTEATISIREDEV [H4K] | 2.16 |
| FLGGHSFSVRPGTEATISIREDEV [H4G] | 2.2 |
| FLGYHSFSVRPGTEATISIREDEV [H4Y] | 1.42 |
| FLGQHSFSVRPGTEATISIREDEV [H4Q] | 1.32 |
| FLGCHSFSVRPGTEATISIREDEV [H4C] | 1.39 |
| FLGVHSFSVRPGTEATISIREDEV [H4V] | 1.77 |
| FLGTHSFSVRPGTEATISIREDEV [H4T] | 2.16 |
